Laboratory results as given in the supplement of paper PMC11908140.

B1: library; numbered along this chain (parent)
chain: MRKPRAAVGSGHRKQAASQEGRQKHAKNNSQAKPSACDGLARQPEEVVLQASVSSYHLFRDVAEVTAFRGSLLSWYDQEKRDLPWRRRAEDEMDLDRRAYAVWVSEVMLQQTQVATVINYYTGWMQKWPTLQDLASASLEEVNQLWAGLGYYSRGRRLQEGARKVVEELGGHMPRTAETLQQLLPGVGRYTAGAIASIAFGQATGVVDGNVARVLCRVRAIGADPSSTLVSQQLWGLAQQLVDPARPGDFNQAAMELGATVCTPQRPLCSQCPVESLCRARQRVEQEQLLASGSLSGSPDVEECAPNTGQCHLCLPPSEPWDQTLGVVNFPRKASRKPPREESSATCVLEQPGALGAQILLVQRPNSGLLAGLWEFPSVTWEPSEQLQRKALLQELQRWAGPLPATHLRHLGEVVHTFSHIKLTYQVYGLALEGQTPVTTVPPGARWLTQEEFHTAAVSTAMKKVFRVYQGQQPGTCMGSKRSQVSSPCSRKKPRMGQQVLDNFFRSHISTDAHSLNSAAQ

Variants of: B1
Assay: 8OG:A repair function score (normalized; synonymous = 0, nonsense = -1) (normalized log-likelihood score); higher = more repair activity (WT-like)
Details: with 8OG:A DNA repair reporter (GFP) in HEK-293 MUTYH KO cells
In short: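 GFP+ (repair) and GFP− bins of viable mCherry+ cells were collected at 72 h from MUTYH knockout HEK-293 cells bearing lentiviral MUTYH cDNA NNN codon-scan libraries in 10 pg/ml doxycycline, co-transfected with an 8OG:A GFP repair reporter and mCherry. Tile amplicons were sequenced, and per-tile Rosace fitness scores were normalized to a repair function score anchored on synonymous and nonsense distributions. Synonymous medians were set to 0 and nonsense to -1, with variants under 300 counts per million at the start removed.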
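Further: cells sorted at 72 h after reporter transfection.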

8OG:A repair function score, by site and new letter:
S459: I -0.53 | M -0.693 | A -0.218 | V -0.746 | R -1.13 | E -1.11 | Q -0.749 | W -0.631 | T -0.392 | P -0.197 | N -0.679 | F -0.45 | Y -0.268 | L -0.866 | K -1.03 | G -0.212 | D -0.823 | H -0.136 | C -0.291
T449: Q -0.0362 | D -0.211 | P -0.0904 | A 0.0699 | F -0.363 | N -0.203 | G -0.132 | C -0.0406 | I -0.282 | Y 0.0178 | L -0.0459 | M -0.0649 | V -0.286 | H -0.131 | R 0.00957 | E -0.0743 | S 0.084 | K -0.144 | W -0.634
V465: C 0.0124 | D -0.864 | I -0.0425 | H -0.79 | G -0.801 | A -0.0879 | F -0.73 | E -1.42
A457: D -0.44 | P -0.15 | S -0.432 | V -0.205 | K -0.815 | E -0.495 | M -0.585 | W -0.671 | R -0.672 | Q -0.402 | Y -0.48 | L -0.583 | C -0.467 | F -0.356 | N -0.58 | T -0.533 | H -0.398 | G -0.183 | I -0.537
H454: A 0.182 | K -0.0092 | T 0.153 | P -0.139 | I -0.184 | D -0.376 | N 0.24 | C 0.0357 | F -0.268 | L -0.234 | R -0.00791 | M -0.158 | Y -0.087 | S -0.168 | E -0.068 | G -0.0392 | Q -0.0422 | V -0.00673 | W 0.536
W447: T -1.01 | V -0.846 | Y -0.455
M462: S -0.0759 | Q -0.198 | D -0.463 | L -0.449 | H -0.138 | G -0.215 | V -0.097 | Y -0.369 | A -0.0163 | N -0.31 | E -0.603 | R -1.12 | T 0.0162 | I -0.13 | W -0.592 | K -1.21 | C -0.0756 | P -0.578 | F -0.254
K464: A -0.184 | H -0.313 | N -0.146 | R -0.123 | D -0.393 | P -0.968 | F -0.702 | Q -0.245 | I -0.441 | G -0.315 | C -0.49 | T -0.351 | V -0.276 | S -0.198 | W -0.474 | L -0.298 | E -0.152 | Y -0.503 | M -0.266
L448: N -0.42 | E -0.411 | D -0.727 | Q -0.202 | V -0.117 | R -0.341 | F -0.205 | Y -0.324 | W -0.658 | S -0.184 | M 0.207 | G -0.516 | K -0.743 | H -0.0456 | T -0.164 | C -0.0248 | I -0.0362 | A -0.105 | P -0.895
K463: T -0.141 | F -0.101 | L -0.0958 | Q -0.183 | C -0.196 | R -0.0765 | G -0.303 | Y -0.191 | D -0.287 | S -0.241 | P -0.617 | M -0.0542 | W -0.075 | H -0.12 | I -0.089 | A -0.157 | V -0.129 | E -0.265 | N -0.338
T455: W -0.419 | R -0.0505 | I 0.0349 | P -0.714 | M -0.111 | L -0.171 | V -0.122 | Y -0.209 | A -0.141 | D -0.394 | C 0.318 | H 0.0572 | Q 0.174 | N 0.0652 | E -0.119 | S 0.128 | G -0.211 | F -0.273 | K -0.247
A461: Y -0.726 | M -0.276 | E -0.842 | C -0.0899 | F -0.265 | L -0.0454 | V -0.124 | I -0.152 | N -0.222 | R -0.632 | D -0.732 | K -0.813 | W -1.22 | P -0.267 | H -0.545 | G 0.00127 | T -0.23 | Q -0.495 | S -0.119
T460: L -0.235 | R -0.0566 | A -0.00746 | N -0.00346 | W -0.305 | Q -0.131 | C -0.0915 | P -0.347 | E -0.212 | F -0.157 | I -0.102 | K -0.0077 | Y -0.219 | V -0.029 | G -0.0856 | S -0.019 | M -0.152 | D -0.312 | H -0.38
V458: N -0.786 | F -0.4 | Q -0.711 | R -0.663 | P -0.535 | T -0.214 | W -0.709 | K -0.57 | E -0.975 | I -0.0811 | D -0.952 | M -0.204 | S -0.192 | A -0.667 | C -0.27 | Y -0.724 | G -0.853 | L -0.294 | H -0.592
E451: Y 0.131 | H 0.0926 | N 0.26 | A -0.0912 | W -0.143 | D -0.178 | R 0.0453 | F -0.282 | Q -0.157 | I -0.186 | S -0.131 | P -0.158 | G -0.0413 | T -0.12 | K -0.241 | L -0.179 | V -0.135 | M 0.0404 | C -0.198
Q450: L -0.12 | H 0.0291 | F 0.013 | I -0.0986 | M -0.0723 | G -0.0458 | P -0.118 | W -0.011 | D -0.113 | C -0.0453 | V 0.073 | R 0.0701 | S -0.114 | K 0.354 | E 0.156 | N 0.172 | T 0.0482 | Y 0.286 | A -0.0533
E452: T 0.0217 | H -0.275 | P -0.856 | V -0.351 | R -0.0533 | Y -0.442 | I -0.47 | Q -0.335 | W -0.631 | A -0.387 | K -0.211 | L -0.252 | S -0.0485 | N -0.395 | M -0.205 | F -0.387 | G -0.228 | D -0.0961 | C -0.0884
F453: H -0.758 | W -0.274 | G -0.893 | L -0.306 | C -0.791 | A -0.66 | M -0.51 | Y -0.106 | R -1.09 | E -1.1 | P -0.896 | T -0.694 | S -0.421 | Q -0.887 | K -0.87 | D -1.22 | V -0.184 | N -1.25 | I -0.334
A456: I -0.12 | S -0.267 | C -0.168 | P -0.814 | N -0.487 | Y -0.476 | K -0.248 | W -0.531 | L -0.287 | E -0.405 | H -0.479 | V -0.16 | Q -0.514 | G -0.246 | D -0.523 | M -0.328 | R -0.498 | T -0.365 | F -0.61
